Data from the supplement of paper PMC10724198.
± gives the standard deviation of the averaged measurements.

tested on: Saccharomyces cerevisiae; assay: protein stability index of tFT-peptide fusion (C-terminal peptide) (PSI (0-1 scale)); higher = more stable (slower turnover); settings: genetic background: wild type; temperature: 30 C
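Further: PSI is a weighted mean of sequencing reads over stability bins, variants kept only with over 10 reads, mCherry proximal and sfGFP distal, peptide attached via GGGS linker.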

Row | Sequence | protein stability index
1 | PNPHDPQLPPPH | 0.709 ± 0.05
2 | PNPHGRPSIPAL | 0.65 ± 0.039
3 | PNPIHHPTSTTA | 0.672 ± 0.053
4 | PNQTRPHPHHNL | 0.69 ± 0.02
5 | PNRSPPLPRPLM | 0.693 ± 0.0074
6 | PPAICSFLSPPF | 0.655 ± 0.017
7 | PPALSLPAPLLP | 0.6592 ± 0.0039
8 | PPAPPARFPSPP | 0.711 ± 0.068
9 | PPAPPPLPPPTH | 0.633 ± 0.049
10 | PPAPPPLSPSPI | 0.832 ± 0.04
11 | PPAPRPRSPSPL | 0.719 ± 0.0085
12 | PPAPRVSPPPPP | 0.712 ± 0.073
13 | PPAPSSLTASPF | 0.71 ± 0.08
14 | PPARLPLPPPSP | 0.753 ± 0.061
15 | PPARPLFPLPRL | 0.754 ± 0.077
16 | PPASSPRRPTPP | 0.675 ± 0.011
17 | PPDGRPPPLRLM | 0.679 ± 0.014
18 | PPDSPSPLPPPP | 0.681 ± 0.054
19 | PPFLSPLRPPSL | 0.781 ± 0.09
20 | PPFPARPRPHPV | 0.6623 ± 0.0056
21 | PPFPLACPPLLF | 0.657 ± 0.11
22 | PPFPPPPPPPLS | 0.714 ± 0.05
23 | PPFRPRPPPPSA | 0.812 ± 0.17
24 | PPFRRPPPDPQP | 0.7343 ± 0.0059
25 | PPFSTPFLPPSS | 0.727 ± 0.072
26 | PPFTLRPQVPTH | 0.664 ± 0.0097

Row | Sequence | protein stability index
27 | PPGQRGRRDRAA | 0.647 ± 0.015
28 | PPGSSPPPVLSL | 0.703 ± 0.022
29 | PPHGRKRRGKEP | 0.776 ± 0.16
30 | PPHHLPPGPPHP | 0.72 ± 0.078
31 | PPHLFLPSSMPF | 0.693 ± 0.015
32 | PPHPPPPSPALL | 0.74 ± 0.01
33 | PPHPPPRLPPPP | 0.724 ± 0.043
34 | PPHRRTPQRRCP | 0.701 ± 0.013
35 | PPIPPSAPLCPP | 0.688 ± 0.014
36 | PPIPYIVPPSYT | 0.657 ± 0.015
37 | PPITKKITRNTA | 0.676 ± 0.014
38 | PPIWYAKHRPAP | 0.6904 ± 0.0069
39 | PPLCPPLQPPLI | 0.639 ± 0.02
40 | PPLFRPPASAPR | 0.715 ± 0.018
41 | PPLLPLPPRPLL | 0.728 ± 0.044
42 | PPLLPPPPQLLL | 0.679 ± 0.028
43 | PPLLPPPVPPVP | 0.727 ± 0.07
44 | PPLMLPSTPSSS | 0.704 ± 0.095
45 | PPLPAPGPIFLP | 0.652 ± 0.037
46 | PPLPGHPCLWPT | 0.649 ± 0.057
47 | PPLPLPGPDHHL | 0.731 ± 0.087
48 | PPLPLPPSRSPA | 0.686 ± 0.026
49 | PPLPLPSPRPPP | 0.619 ± 0.0092
50 | PPLPPAPPPPPH | 0.697 ± 0.056
51 | PPLPPLCRPLPP | 0.685 ± 0.1
52 | PPLPPLPSPSPP | 0.721 ± 0.092

Row | Sequence | protein stability index
53 | PPLPPPLRPPPS | 0.685 ± 0.026
54 | PPLPPPTSPPRP | 0.69 ± 0.038
55 | PPLPPSPSVSPR | 0.746 ± 0.021
56 | PPLPSPLCPQPP | 0.714 ± 0.032
57 | PPLQRFSYRPGR | 0.754 ± 0.069
58 | PPLSLPLCLSPL | 0.6838 ± 0.0035
59 | PPPAPDRATIRR | 0.673 ± 0.068
60 | PPPAPFSPLPPP | 0.7184 ± 0.002
61 | PPPAPPPPPPLP | 0.7026 ± 0.0022
62 | PPPAPPPPPPPP | 0.693 ± 0.068
63 | PPPAPPPPPTFL | 0.688 ± 0.019
64 | PPPAPPSPLLSR | 0.685 ± 0.1
65 | PPPFPSPLPPPP | 0.678 ± 0.0097
66 | PPPHPLPRPLPT | 0.853 ± 0.051
67 | PPPHPPPRLPSP | 0.604 ± 0.078
68 | PPPHPTPPLTSP | 0.702 ± 0.058
69 | PPPHSPVPPSQS | 0.68 ± 0.022
70 | PPPLAPPSVPCS | 0.604 ± 0.053
71 | PPPLFLSPFPPR | 0.727 ± 0.015
72 | PPPLHPTTLPQP | 0.733 ± 0.017
73 | PPPLLPAPGSTI | 0.662 ± 0.0079
74 | PPPLLPASFHLP | 0.629 ± 0.0082
75 | PPPLPPPAPPPP | 0.658 ± 0.025
76 | PPPLPPPLPPPL | 0.705 ± 0.05
77 | PPPLPRHLRAPP | 0.689 ± 0.018
78 | PPPLPVFPRPPP | 0.682 ± 0.012

Row | Sequence | protein stability index
79 | PPPLSLLPAPPA | 0.6953 ± 0.0021
80 | PPPLSLSCPFRP | 0.712 ± 0.052
81 | PPPLSPSTSDHP | 0.652 ± 0.019
82 | PPPNPPPALPPL | 0.664 ± 0.047
83 | PPPPAAFFPRSP | 0.827 ± 0.11
84 | PPPPAPPVPLPL | 0.693 ± 0.016
85 | PPPPASSFSPPR | 0.7366 ± 0.0054
86 | PPPPAVPPSPPP | 0.645 ± 0.012
87 | PPPPFSPAHLPH | 0.6993 ± 0.0042
88 | PPPPHYPHHTAS | 0.738 ± 0.029
89 | PPPPLSAPPFSS | 0.697 ± 0.051
90 | PPPPLYPQPPPT | 0.705 ± 0.025
91 | PPPPPFLPPTPP | 0.622 ± 0.041
92 | PPPPPLPLPLPS | 0.728 ± 0.066
93 | PPPPPLPPPSPF | 0.734 ± 0.06
94 | PPPPPPLPSLPR | 0.678 ± 0.089
95 | PPPPPPPAPPLP | 0.648 ± 0.044
96 | PPPPPPPHSPPS | 0.664 ± 0.035
97 | PPPPPPPLPPFT | 0.681 ± 0.015
98 | PPPPPPPPALSS | 0.7163 ± 0.0034
99 | PPPPPPPPHLLP | 0.658 ± 0.027
100 | PPPPPPPPPSSP | 0.701 ± 0.057
101 | PPPPPPPRALNL | 0.687 ± 0.038
102 | PPPPPPPTSRPP | 0.644 ± 0.03
103 | PPPPPPTPAPPP | 0.711 ± 0.044
104 | PPPPPQSRASSP | 0.738 ± 0.022

Row | Sequence | protein stability index
105 | PPPPPRPFLPPP | 0.654 ± 0.058
106 | PPPPPRPLPPLP | 0.695 ± 0.043
107 | PPPPPSPAPSLR | 0.723 ± 0.052
108 | PPPPPSSPPASP | 0.653 ± 0.03
109 | PPPPPSSPPPPA | 0.639 ± 0.099
110 | PPPPPTPHTPLL | 0.672 ± 0.031
111 | PPPPPTPPHQPR | 0.79 ± 0.022
112 | PPPPPTPSTRTS | 0.667 ± 0.015
113 | PPPPPVSSPLVT | 0.657 ± 0.048
114 | PPPPRATLPRPP | 0.681 ± 0.044
115 | PPPPRPSPPSLP | 0.676 ± 0.0058
116 | PPPPSCPHSAPL | 0.637 ± 0.008
117 | PPPPSHPSPPPP | 0.654 ± 0.021
118 | PPPPSLPTPRPP | 0.662 ± 0.012
119 | PPPPSPPPILPP | 0.64 ± 0.01
120 | PPPPSRPPSPGP | 0.6691 ± 0.00067
121 | PPPPSVCPRFPI | 0.785 ± 0.12
122 | PPPPTPLPPPDP | 0.68 ± 0.035
123 | PPPPTPRYRAPL | 0.671 ± 0.057
124 | PPPPVLPPPLPP | 0.7 ± 0.012
125 | PPPPVPRPRLPI | 0.648 ± 0.099
126 | PPPPYPLPASCL | 0.653 ± 0.058
127 | PPPPYPSTRHSP | 0.6564 ± 0.0021
128 | PPPQPPPSPPPP | 0.67 ± 0.097
129 | PPPQTRPPTPTP | 0.741 ± 0.081
130 | PPPRARPHAPPL | 0.653 ± 0.017

Row | Sequence | protein stability index
131 | PPPRLNPLPPAC | 0.731 ± 0.066
132 | PPPRLPSRPPPP | 0.716 ± 0.032
133 | PPPRLRSPHGLF | 0.718 ± 0.08
134 | PPPRPPLPPPLP | 0.692 ± 0.032
135 | PPPRPPPPPPVP | 0.707 ± 0.041
136 | PPPRPRLSRLLH | 0.6114 ± 0.0012
137 | PPPRSLPPISPV | 0.623 ± 0.02
138 | PPPRTFSSSFHV | 0.6366 ± 0.0043
139 | PPPSHLHLPSPA | 0.53 ± 0.0095
140 | PPPSPPAQSLRS | 0.759 ± 0.079
141 | PPPSPPSGALTP | 0.763 ± 0.053
142 | PPPSPSPPPSSP | 0.698 ± 0.039
143 | PPPSPSTPKTTL | 0.6943 ± 0.0068
144 | PPPSRPSHPPPA | 0.628 ± 0.015
145 | PPPSSPPSPVIR | 0.694 ± 0.056
146 | PPPTLPPPPPAL | 0.711 ± 0.033
147 | PPPTLPSPPSPP | 0.712 ± 0.011
148 | PPPTLYPPPFPP | 0.659 ± 0.027
149 | PPPTRAPPPKPG | 0.621 ± 0.028
150 | PPPVPPRFAVRP | 0.6678 ± 0.0015
151 | PPPWPSLCLPPS | 0.706 ± 0.048
152 | PPPYAPLPPTWP | 0.726 ± 0.023
153 | PPPYPFPHLSPL | 0.713 ± 0.029
154 | PPPYPSYPPRPN | 0.724 ± 0.032
155 | PPQHRNPAVRRH | 0.667 ± 0.023
156 | PPRAPLPRPPQP | 0.656 ± 0.011

Row | Sequence | protein stability index
157 | PPRAPSPLPPPL | 0.704 ± 0.027
158 | PPRLDLPFPLSR | 0.747 ± 0.08
159 | PPRPDRSSLPPF | 0.712 ± 0.037
160 | PPRPLTPAPSDT | 0.682 ± 0.014
161 | PPRPPCSPLPPR | 0.678 ± 0.052
162 | PPRPPPPPAHPP | 0.557 ± 0.029
163 | PPRPPPPPSPPL | 0.745 ± 0.027
164 | PPRPPPSSPHLV | 0.698 ± 0.023
165 | PPRPPRPPPRTP | 0.694 ± 0.022
166 | PPRPPSPAPPPP | 0.687 ± 0.042
167 | PPRPRRPLHRSS | 0.664 ± 0.011
168 | PPRQPFPPILPS | 0.677 ± 0.046
169 | PPRQPLSLLLPL | 0.6468 ± 0.0016
170 | PPRRPPRPPPPA | 0.701 ± 0.064
171 | PPRRSSLSPPLA | 0.6562 ± 0.0027
172 | PPRSHKPPQMQT | 0.663 ± 0.0082
173 | PPRSPRPPPSRP | 0.72 ± 0.1
174 | PPRTMTLSAPLT | 0.708 ± 0.02
175 | PPSALPHPPLPP | 0.718 ± 0.028
176 | PPSARLPPPPPR | 0.789 ± 0.12
177 | PPSHIPASGTKR | 0.716 ± 0.041
178 | PPSHPLTIRPPL | 0.663 ± 0.014
179 | PPSIEAAQPPYF | 0.681 ± 0.015
180 | PPSLFSSTQLLF | 0.7095 ± 0.0067
181 | PPSLPLPAPPPP | 0.66 ± 0.063
182 | PPSLPPPSPAPL | 0.682 ± 0.03

Row | Sequence | protein stability index
183 | PPSLPPRPRPPS | 0.6411 ± 0.0049
184 | PPSPAFTTHLPP | 0.576 ± 0.0064
185 | PPSPALPPSLPV | 0.682 ± 0.032
186 | PPSPAPSPPRPL | 0.702 ± 0.021
187 | PPSPHHPPPPAL | 0.753 ± 0.0082
188 | PPSPPPARPSPA | 0.667 ± 0.041
189 | PPSPPPPPAHPP | 0.597 ± 0.01
190 | PPSPPPPPPPPP | 0.6847 ± 0.0032
191 | PPSPPPPPRPPP | 0.583 ± 0.019
192 | PPSPPPPTGLCL | 0.745 ± 0.078
193 | PPSPRHPAPQPR | 0.679 ± 0.026
194 | PPSPRPPPPSPS | 0.719 ± 0.1
195 | PPSPSLPPPPRS | 0.699 ± 0.055
196 | PPSRTPFLPPFR | 0.691 ± 0.032
197 | PPSSPPFLPSRP | 0.677 ± 0.031
198 | PPSSPPPPLPPS | 0.712 ± 0.035
199 | PPSVILTSASSR | 0.721 ± 0.011
200 | PPTHLLRTHPPA | 0.68368 ± 0.00032
201 | PPTLPPPRTLPL | 0.6984 ± 0.0052
202 | PPTPPPPSLTPP | 0.746 ± 0.027
